# Experiment: soluble on expression in E. coli; label from the status in PepcDB or PDB records
row,Sequence,soluble on expression in E. coli
1,GMWQFPLFETILIEQGQAKNISYHQQRYEKSLLKFYPKMKLQPFDLAKIIAKHTALFTHREGLIRCRIDYNHHDYVLQCFPYQQKVYRTFKPVFCDHIDYSLKFSDRTLLNNLLKQKEECDEIMIIRQGKVTDCSIGNLIFRQNNQWITPDKPLLEGTQRAKLLEQKKIIAREIFFEDLAQYEEIRLINAMNGL,soluble
2,GNFTYAHSEFLKYEEPAYNEKYRSHIGQSLNQWYGLIAERLFIDEYDVQNSPKQTFGEYGAGDIKYRDVNGDGQITDADMVPLGYPTVPEIVYGFGFSFGNQRFDISAFFQGSARSSFWIDAKATSPFQHINPTDDDPYHQDIPLLKAYANDHWSESNRNLYAMWPRLSTTVIENNVRTSSWFMRNGAFLRLKTLEVGYTLPESWTKKAYISSARVYCSGNNLLLLSGFKLWDIEMGGSGLGYPIQRVINLGVQINF,not soluble
3,GPASQHFLSTSVQGPWERAISPNKVPYYINHETQTTCWDHPKMTELYQSLADLNNVRFSAYRTAMKLRRLQKALCLDLLSLSAACDALDQHNLKQNDQPMDILQIINCLTTIYDRLEQEHNNLVNVPLCVDMCLNWLLNVYDTGRTGRIRVLSFKTGIISLCKAHLEDKYRYLFKQVASSTGFCDQRRLGLLLHDSIQIPRQLGEVASFGGSNIEPSVRSCFQFANNKPEIEAALFLDWMRLEPQSMVWLPVLHRVAAAET,soluble
4,GPGSFIDPPSDQGMSDAFYQLLYFGAVDDGLQLTDFGRRMAVLPVDVCLARMLLMAPKHGCGADAAVVAAMLEAGNAFSRPPSRLAEAREAHARFDNADGDHVALFRVFHAYFKNQQNGKRFCYENYLRHQTLQQAVQVYKQLRRLMSQLMIPVQSTYIPEREYVDTVALRKAVLEGFFTQVAFLTPVAPITH,not soluble
5,GPGSMAAIGGGSGDIEELLKQITNHPGVQGIIIVNTDGIPIRHTFQEHSRLLAVQYSALFQSLAMKARNAVLEIDNNNELLFLRVRTKKHEVLVAPDTKYLLIVIQQVESGDAVPNANGVSA,not soluble
6,GPGSMADNEEVPPSGPRMTREETDELVRRLYDQQMERAARREEERQRQLARPFCSSRRIKKDEEENLVRRIYDVQRERFQQSKEERERRLTLELQSKDKKLPESEIQDQVDRIYNQEVAKSKARREELQKRYLPEVPPKTIGKKQLKESVERLFRVDYVKRDEELFKKHVYPYDPPTTKISRTDVEAMANRLSRRGS,not soluble
7,GPGSMAETTIGFRCQDFVLVAAAGLNAFYYIKITDTEDKITELDSHKVVACAGENGPRTHFVEYVKCNMALKKMREHGRMISTHATASFMRNTLAGALRSRDGLYPVNCLLAGFDVPASAEDDVATGAHLYYLDYLGTLQEVPYGCHGYGAPFVTAMLDRMWRPNLTAQEGVELMQKCCDEVKKRVVVSNNTFICKAVTKDGVERVQSVS,soluble
8,GPGSMALATTGYPALASSHSFANASTSVMTASAMAVVRRAATTTGASAATTTPQVVHYSKLGMDGFTDIKFNTAADELLELVETKVDALDSAAVEDVSCNGGVLTLETTDRGTFILNKQAPNVQLWLSSPISGPHHYDMITVTQGGHEKVSWKSDHDGHDLVKKLEEELTEVLGTDFKV,soluble
9,GPGSMASNITAERYEQLKKERTFHKFTYRGLEIDPLLALSEEEFKALVHARARRNMNRHADRRPPVLLKRLREAKKHVKVGEKPKAVKTHLRDVVITPEMVGSVVAIYNGHQFNAVEIKGEMIGHYLGEFSMSYRPVLHGRPGVGATHSSRFIPIK,soluble
10,GPGSMCKLHVKRTAAHSSCAVTKDNFNAIGYGARLVFKICNIADCIVRNGESNRVLSVSSTIMSMSVIHGGITIQTIPVHCVFNYELCNPLRMAHVDRQKCAPGYVVSDPLPEINEYSDADVVIKNLLSAHSLHDAHEKNAFTALVRAMISDRDMQKLGGNTEADQYALIGVFLILYGPGSIKIANQENELVPKKHVDYCGKKQIMNLTRKNHDT,not soluble
11,GPGSMDVYRQAAEIVGIVREGNGTAKALCLRKDMQKKKQTYAVVCETLRHYELLEDVLEVAEFFKYYPQANHEFAMCMAYDVVLGKGVNTHNDSTARAVSHSASYLREAYWQVRKHHVIPPRSSEKLDDEVAADTEGGARGKRRSGDSVSSSPSLQLPRYARVNTLKISVEELVSRLRRSAEVRKRARDAKDNDGDAAASSHPQQQNGDKRATRRASSRPHRPLPEFTQDPVVPHLLVFPPGTDLHAHPAVRSGQLILQDRASCLPAAVLLDAVPVEVIEGDTAGSSKGRKKAKGGTALGKEKGRGNETDAAARRPLEYVVDACAAPGNKTTQLAALGAPHIKIMATERDERRADLLSKRVASLGAADYVNVVSMDFFQLSSDDRAATEGILLDPSCSASGVMTRVDVALQHHHHHHHEQQRKGKARQADRRVSLLQGSRRGSHHEDADRNAAEEGQLDDGDREETANSGAINPAAQGNEFSMKEERVEKLARLQRKLLAHSLLSFDNCRTVVYSTCSVHEEENEEVVRQVLDDERVKARGWRLSNIMPNTWKTRGAEREGEEHPLRFTIRCDPATEATNGFYVARFDRVC,soluble
12,GPGSMENKDVATSWDYNSAEIGEFVPNSCTGTHFPNGIACAPWFQQQVTSQPHLCSSEFASSVESVGGPACRVGSEGSDYCFMNKSVCRNEEEGAEEVEGNEGESNLRWGMHIHPAALRAVQASSREVVQGLIRDKELLCSQFGTMQQNIPLAITWHDTTAPSPNQTLASTFTPLPHKKRSRDLVTLLSGISPDWEAAEEVGGASAAAHVGGLEIQRKRFRVDNPTIGSAAYEVSKAATAASPKPWIKARQKRVREEGDEDVNVNVEWGRGRDGNENSGR,soluble
13,GPGSMEVNATLIDCCDPQKPSRVLFHFLILDAPSPSNLPTYIKELQHRGVRHLVRVCGPTYDATLVKSRGIDVHSWPFDDGAPPTRAVLDSWLKLLDTELARQQEDPSVPPPTIGVHCVAGLGRAPILVALALVEYGNVSALDAIALIREKRKGAINQTQMHWITKYKRRHQGAGCVIM,soluble
14,GPGSMEYVGALYKDYGELLSTAQNSFLNVQSDVEGVEDVKNICARLHISIHRWEHSEELYAVRNQLHLQTQVLKAHSDHSSRVLQECVQRDELIKMHTEKSALLATKLRKQSSEVDKLQKECDKLDRKIAKRSEVAQKDLDAMAVKSTATVLSLTSQFFKVMHKNGAFIADRFSPDRAGVGAHDFDTASDDAVTGTLRRLHSVRSEMSSVAPSAVYGQNYNTFHPSEADTRVSDGARNSGIPLRYETSVPPAMSA,not soluble
15,GPGSMKALVRRFGPEPSVIEECSADQEWEKPCLASTEDTAVAPGDSVKDTRNNLSGSEGLANGRAESSQRAVDVSSFIRLFSVEWCLTEEQQAENSRRLDAFFHPHPAPPSCQPAPLLPSVQTCGETVDPDIWSLPEVSQEELQRWREEKLSLSDRLVWRGRKTIKQVNMRRM,not soluble
16,GPGSMKKELRVGVLISGRGSNLEALAKAFSTEESSVVISCVISNNAEARGLLIAQSYGIPTFVVKRKPLDIEHISTVLREHDVDLVCLAGFMSILPEKFVTDWHHKIINIHPSLLPSFKGLNAQEQAYKAGVKIAGCTLHYVYQELDAGPIIMQAAVPVLREDTAESLASRILAAEHVCYPKGVKLIAQDKIKLCDDGTVQCTGEDELFLFQENF,soluble
17,GPGSMKTIRKRMRLSVSGRSSARSGMSSDTRLPAAVLERETKVINYSHSTSRAMAAQLENCVRLIRGYQASLQYCNEEIEGALLSLGVATTHSLISSITSVMEGLDTLSGVCRAMHEGYNEEVRHREDLHTSLTGAYISLKELHEATENELREVVAERDRKVAAFGKAVAYVEAVVAERMLWQEANGYNCAGLPVVEMSFSESCHEALRKFDDTVSEAQGEGHSNAESLLASTDVPQTLAKRWDNVENLRHTNGLPSARVLYVPPKDEVELLRNVLEMGTGDRALMWDVQQRERALQDSLTNIHVFGHSCLKALHSMREELAEFRQWFLTIDRKCEPIVVAMRKLGNGVCGLSSASDKNLPH,not soluble
18,GPGSMLASTPGSNFGGAVASSNNNGGQQPQRRMHPIRPLTIKQMLEAQSVGGGVLVVDGREVTQATVVGRVVGYENANMASGGGAITAKHFGYRITDNTGMLVVRQWIDADRMQEPLAINTHVRASGTVNVWQQTPIVTGTVVSMADSNEMNYHMLDAILTHFRLTQGNKRAPSSGVSIQNTASAVGMHNMLPGGDNKVLLTDLLVSFIKQHGSSGAGMSMDELTTSAQRYGFTHGDVRTAMRTLAAEGKVYQTHDNRFNI,soluble
19,GPGSMLHDAPWHLSLAHRCLAPHGVVAIMGYATRVCVVAPEAARRDADDFMEDLQRTAREAAKMKDSKELRVALGRAIDISSSLDAGHADMYFPFRSTKRRWFTSEYAATPAQLAASYRALPEYQLLSREMPRYRQALISGRQKVQVGEETEKDEPVNVFRRQHGAEPLEVLQGCLQAQVMSLHGRNTPAMPPLRVQVRHFIITCSSRSVNAASEPFQLRSLRREIPQLK,not soluble
20,GPGSMLRPSSLCRVAFPVHRDTTKTPRLVKEVGSWLYKRETVESFRAWCKANNVRGSGNVKVVSTMHYARCLRAARHLRPGQAIITLPHTACFNFLVVAKEMYGVSGKGGTVSHNFPLEVNWMNYDERCSFLRSASMSELTTAGWMCRIASLEESRFTPYIHWLLEDTRGRDGVANGVSRERGEESGLVDHYFSEMATDACEDPEEFLENLFRSFAALHLRAVPIESAAIRLFLPGTNFFKAKVDEMFVPTLMPLIDAVPQLEDGLHNTAVEYFPFSDEETLLKQCKDLVLSEGGTNEMRELRRRCLAQEQGAGAFFALRALCPIEEGDYLYVRGVPKLGAPEQESMTVRVMEANRLLNNE,not soluble
21,GPGSMLSERACLHPGRALKCERFLAIFPQNVKEMLLQNPLFVQNSRVAERSIIRHNQFLLACYMTYLILRNDENAEGQALKYINFMPRNEGNFEQLISNMNGVLDGAAACQSAQAALSLQFGITQAEVRPLLQWSMAMIFSRMAPIDHRWTLQCAFKNTPFAPAFDIRGPDDDANMVKEPIAFLCPVIDMCNHSDHENVALMVPQRTDSSHESVICLRSLRDIDRGEELTMTYGGSPTELRVIWGMQRVL,not soluble
22,GPGSMMREAGRQRRRNADSDESSSEDEQQQTTTTVQETTAAAPPARVRAKAPAAAVVSAPSMTLHADPTATQVTAPSAVSAETADSEGGSNEDAPSSAAAAAPPNEFSEEMEAIDYDALTYAALLDIMNRASRPVIEELMAQREQQVESTMQQQQNQRVERFLDVATTSSATAAEANGSSAEEEAAEGYRYNTMLTRLFEALNRNNEGSAMTERNQLPVPILERMGKKKTVIANFGRICDAFHRPMEDVKDFIEKELSIRGNLDSNNALILKFEIRKQTDFDRVLIKYLDEYVKCNSCHRIDTTLTKDGRRLELRCNVCTATRTVTAAGTATFSAQIEKRSRQRAAMIL,soluble
23,GPGSMNIRQRKSERHKEVLRKLSQNGGNKNCFDCGMRGPLYVVSDFGILVCSGCSAVHRSFQHKVKGITMSEFTDDEIARFSVSGNDRARKVWLSTFHDQLPRSGNVMALKDHVHVVFEERRFWSAQELSA,soluble
24,GPGSMPERMTAALAARLVASPLKYVLLDIDGVIWCGGHVIDRVPETLQYLRGQGKQIRFLSNNASFSREQLMQSLKAKGIEGVTVEECYNSAYTAALRLRQMLGKADVPGEEPLVHGNVFVIGEQGLHDELQQVLAPGFITYGVELHDAVRAGGYDTDALGSAWRVPCLPPPQKRLVVCNGKACRMVQAGTNSAEKISLSDLNAAAVVVGLDKHFNIVKLAYGSLVLQGPPKDLREESYTPPLFVATNEDPQLPVGRDGTMIPGAGSMVSALCTAVGKRPDAVCGKPHKDMANILFAAEGVTNPREECIMIGDRLTTDVAFGNAAGCQSMLVLSGAEGLADVEEAEKQGRTALVPKYVAESLACFLPL,soluble

# — the DeepSol protein solubility set
